Source: the Immune Epitope Database (IEDB)

Columns and labels:
Assay in all cases: IEDB peptide-MHC binding, purified MHC/competitive/radioactivity; filed as Kd, often an IC50 or EC50 that approximates it; ≥ and ≤ were set here for values at or beyond the usual limits of such assays
HLA-A*33:01 = biological target: HLA-A*33:01
HLA-A*68:01 = biological target: HLA-A*68:01
HLA-A*31:01 = biological target: HLA-A*31:01
HLA-A*11:01 = biological target: HLA-A*11:01
HLA-A*03:01 = biological target: HLA-A*03:01
[1] = source organism: SARS coronavirus Tor2
[2] = source organism: Vaccinia virus WR
[3] = source organism: Lymphocytic choriomeningitis virus (strain WE)
[4] = source organism: Mammarenavirus brazilense
[5] = source organism: Lassa virus GA391
[6] = source organism: Mammarenavirus juninense
[7] = source organism: Lymphocytic choriomeningitis virus (strain Armstrong)

| Sequence | Kd (HLA-A*33:01; [2]) [nM] | Kd (HLA-A*68:01; [2]) [nM] | Kd (HLA-A*31:01; [2]) [nM] | Kd (HLA-A*11:01; [2]) [nM] | Kd (HLA-A*03:01; [2]) [nM] | other results |
| --- | --- | --- | --- | --- | --- | --- |
| LSAGVEFLK | – | – | – | – | – | Kd (HLA-A*33:01; [1]): 8180 nM; Kd (HLA-A*68:01; [1]): 0.244 nM; Kd (HLA-A*31:01; [1]): 776 nM; Kd (HLA-A*11:01; [1]): 0.171 nM; Kd (HLA-A*03:01; [1]): 9.41 nM |
| MLPESDLDK | ≥ 73200 | 1240 | ≥ 36200 | 2080 | 5640 | – |
| MSAPPAEYK | – | – | – | – | – | Kd (HLA-A*33:01; [1]): 1860 nM; Kd (HLA-A*68:01; [1]): 2.36 nM; Kd (HLA-A*31:01; [1]): 37.8 nM; Kd (HLA-A*11:01; [1]): 0.948 nM; Kd (HLA-A*03:01; [1]): 4.14 nM |
| NAVYQCRKLR | 6350 | 332 | 348 | 17700 | 7270 | – |
| NFSIIELPY | ≥ 35000 | 3440 | 6320 | 1070 | 716 | – |
| NIERQDYRR | 924 | 119 | 1500 | 12000 | ≥ 66800 | – |
| NIRLTDTEYR | 157 | 1.39 | 59 | 17500 | ≥ 70100 | – |
| NQNLIPSTVK | ≥ 70000 | 406 | ≥ 24800 | 360 | 14100 | – |
| NSSIISLFY | 7080 | 125 | 5260 | 44.6 | 56.7 | – |
| NTILLSDKGK | 12400 | 1.45 | ≥ 20300 | 190 | 96.6 | – |
| NTVVRDFENY | ≥ 21700 | 235 | ≥ 70000 | 520 | ≥ 39700 | – |
| PLHKYCVNLY | 14400 | 6570 | ≥ 23200 | ≥ 25600 | ≥ 70100 | – |
| PMPYMISTY | ≥ 77700 | 1340 | ≥ 34900 | ≥ 42100 | ≥ 45300 | – |
| PSLEYGANY | 7940 | ≥ 60600 | ≥ 10000 | ≥ 21700 | 17100 | – |
| PVDTEFINK | ≥ 41800 | 3570 | 12700 | 89.5 | 19900 | – |
| PVVAAIITR | – | – | – | – | – | Kd (HLA-A*33:01; [1]): 7790 nM; Kd (HLA-A*68:01; [1]): 269 nM; Kd (HLA-A*31:01; [1]): 1240 nM; Kd (HLA-A*11:01; [1]): 1790 nM; Kd (HLA-A*03:01; [1]): 11200 nM |
| QALNSVANR | 104 | 55.7 | 12 | 845 | ≥ 20200 | – |
| QSQMLLIVLK | – | – | – | – | – | Kd (HLA-A*33:01; [1]): 11700 nM; Kd (HLA-A*68:01; [1]): 207 nM; Kd (HLA-A*31:01; [1]): 1410 nM; Kd (HLA-A*11:01; [1]): 10.8 nM; Kd (HLA-A*03:01; [1]): 1620 nM |
| QSYRQYRNY | 109 | 17100 | 2270 | 1600 | 2560 | – |
| RQLFKPLTKK | – | – | – | – | – | Kd (HLA-A*33:01; [1]): 3670 nM; Kd (HLA-A*68:01; [1]): 2130 nM; Kd (HLA-A*31:01; [1]): 383 nM; Kd (HLA-A*11:01; [1]): 8.16 nM; Kd (HLA-A*03:01; [1]): 1.05 nM |
| RQQLEDIFMR | ≥ 58800 | 2560 | 7000 | 10200 | 4830 | – |
| SAYLISIFLH | – | – | – | – | – | Kd (HLA-A*33:01; [3]): 874 nM; Kd (HLA-A*68:01; [3]): ≥ 30900 nM; Kd (HLA-A*31:01; [3]): 250 nM; Kd (HLA-A*11:01; [3]): 5450 nM; Kd (HLA-A*03:01; [3]): 668 nM |
| SCMVNHSTYY | – | – | – | – | – | Kd (HLA-A*33:01; [4]): 8990 nM; Kd (HLA-A*68:01; [4]): 15900 nM; Kd (HLA-A*31:01; [4]): 7410 nM; Kd (HLA-A*11:01; [4]): 16700 nM; Kd (HLA-A*03:01; [4]): 100 nM |
| SIKIKQDVR | 4450 | 316 | 313 | 5370 | 10800 | – |
| SILDRIDTR | 113 | 189 | 71 | 499 | ≥ 78000 | – |
| SLMSIISTFH | – | – | – | – | – | Kd (HLA-A*33:01; [5]): ≥ 25000 nM; Kd (HLA-A*68:01; [5]): 3350 nM; Kd (HLA-A*31:01; [5]): 3740 nM; Kd (HLA-A*11:01; [5]): 2280 nM; Kd (HLA-A*03:01; [5]): 850 nM |
| SSGFYFEIAR | 179 | 13.3 | 14.2 | 90.6 | ≥ 21300 | – |
| SSIVRQLFK | – | – | – | – | – | Kd (HLA-A*33:01; [1]): ≥ 77700 nM; Kd (HLA-A*68:01; [1]): 392 nM; Kd (HLA-A*31:01; [1]): 2000 nM; Kd (HLA-A*11:01; [1]): 73.2 nM; Kd (HLA-A*03:01; [1]): 58.8 nM |

| Sequence | Kd (HLA-A*33:01; [2]) [nM] | Kd (HLA-A*68:01; [2]) [nM] | Kd (HLA-A*31:01; [2]) [nM] | Kd (HLA-A*11:01; [2]) [nM] | Kd (HLA-A*03:01; [2]) [nM] | other results |
| --- | --- | --- | --- | --- | --- | --- |
| STCMMCYKR | – | – | – | – | – | Kd (HLA-A*33:01; [1]): 24.5 nM; Kd (HLA-A*68:01; [1]): 17.8 nM; Kd (HLA-A*31:01; [1]): 5.01 nM; Kd (HLA-A*11:01; [1]): 9.05 nM; Kd (HLA-A*03:01; [1]): 2250 nM |
| STRHPSKLR | – | – | – | – | – | Kd (HLA-A*33:01; [1]): 246 nM; Kd (HLA-A*68:01; [1]): 101 nM; Kd (HLA-A*31:01; [1]): 9.74 nM; Kd (HLA-A*11:01; [1]): 3210 nM; Kd (HLA-A*03:01; [1]): 440 nM |
| STVKTNLYMK | ≥ 70000 | 2.27 | 640 | 3.96 | 212 | – |
| SVDIETAIR | 17500 | 187 | 1800 | 53 | ≥ 78000 | – |
| SVFKGFSDK | 13500 | 5.49 | 764 | 0.852 | 4.28 | – |
| SVSPKLFIR | – | – | – | – | – | Kd (HLA-A*33:01; [1]): 12500 nM; Kd (HLA-A*68:01; [1]): 1420 nM; Kd (HLA-A*31:01; [1]): 116 nM; Kd (HLA-A*11:01; [1]): 755 nM; Kd (HLA-A*03:01; [1]): 7450 nM |
| SVVNARLRAK | – | – | – | – | – | Kd (HLA-A*33:01; [1]): ≥ 33700 nM; Kd (HLA-A*68:01; [1]): 250 nM; Kd (HLA-A*31:01; [1]): 1370 nM; Kd (HLA-A*11:01; [1]): 89.9 nM; Kd (HLA-A*03:01; [1]): 65.5 nM |
| TAVAKCNLNH | – | – | – | – | – | Kd (HLA-A*33:01; [6]): 9990 nM; Kd (HLA-A*68:01; [6]): ≥ 70100 nM; Kd (HLA-A*31:01; [6]): ≥ 70000 nM; Kd (HLA-A*11:01; [6]): ≥ 69700 nM; Kd (HLA-A*03:01; [6]): ≥ 70000 nM |
| TIERIFNAK | 1980 | 19.8 | 240 | 1.16 | 3190 | – |
| TLVPVLEKK | 14000 | 117 | 332 | 15.9 | 237 | – |
| TQYNRYLALY | – | – | – | – | – | Kd (HLA-A*33:01; [1]): 1610 nM; Kd (HLA-A*68:01; [1]): 99.3 nM; Kd (HLA-A*31:01; [1]): 283 nM; Kd (HLA-A*11:01; [1]): 1570 nM; Kd (HLA-A*03:01; [1]): 266 nM |
| TTFDAEYCR | – | – | – | – | – | Kd (HLA-A*33:01; [1]): 111 nM; Kd (HLA-A*68:01; [1]): 2.05 nM; Kd (HLA-A*31:01; [1]): 103 nM; Kd (HLA-A*11:01; [1]): 76.1 nM; Kd (HLA-A*03:01; [1]): ≥ 33800 nM |
| TVCTVCGMWK | – | – | – | – | – | Kd (HLA-A*33:01; [1]): 587 nM; Kd (HLA-A*68:01; [1]): 52.2 nM; Kd (HLA-A*31:01; [1]): 188 nM; Kd (HLA-A*11:01; [1]): 5.49 nM; Kd (HLA-A*03:01; [1]): 24 nM |
| TVVQRCASNK | – | – | – | – | – | Kd (HLA-A*33:01; [1]): 7490 nM; Kd (HLA-A*68:01; [1]): 122 nM; Kd (HLA-A*31:01; [1]): 224 nM; Kd (HLA-A*11:01; [1]): 103 nM; Kd (HLA-A*03:01; [1]): 140 nM |
| VFSFWLLCK | 4130 | 298 | 872 | 11.9 | 281 | – |
| VLAAECTIFK | – | – | – | – | – | Kd (HLA-A*33:01; [1]): 70.2 nM; Kd (HLA-A*68:01; [1]): 258 nM; Kd (HLA-A*31:01; [1]): 133 nM; Kd (HLA-A*11:01; [1]): 104 nM; Kd (HLA-A*03:01; [1]): 59.9 nM |
| VLDIISSKQY | 1430 | 1390 | 518 | 9680 | 601 | – |
| VLMHPDFCK | 1380 | 259 | 227 | 4.33 | 8.68 | – |
| VSSLVKNVNK | ≥ 50000 | 3360 | 1180 | 40 | 172 | – |
| VVKWKRDEH | – | – | – | – | – | Kd (HLA-A*33:01; [7]): ≥ 77700 nM; Kd (HLA-A*68:01; [7]): ≥ 77600 nM; Kd (HLA-A*31:01; [7]): ≥ 34800 nM; Kd (HLA-A*11:01; [7]): 187 nM; Kd (HLA-A*03:01; [7]): ≥ 37200 nM |
| VVVKDDPDHY | ≥ 70000 | ≥ 70200 | ≥ 70000 | ≥ 21600 | ≥ 28000 | – |
| WIKNLETYTR | 1130 | 38.1 | 361 | 6310 | ≥ 40900 | – |
| YIPGTSVIR | 2900 | 40.4 | 664 | ≥ 77900 | ≥ 78000 | – |
| YMVTDKTAY | ≥ 44300 | ≥ 40900 | ≥ 47800 | ≥ 26200 | ≥ 33700 | – |
| YSKFWYLEH | – | – | – | – | – | Kd (HLA-A*33:01; [7]): 12400 nM; Kd (HLA-A*68:01; [7]): ≥ 77600 nM; Kd (HLA-A*31:01; [7]): 6010 nM; Kd (HLA-A*11:01; [7]): ≥ 40900 nM; Kd (HLA-A*03:01; [7]): ≥ 78000 nM |
| YTHGIVFDGK | 350 | 4.56 | 156 | 8.46 | 7.46 | – |
| YTIERIFNAK | 875 | 10.3 | 3550 | 36.2 | 231 | – |
